Source: the supplement of paper PMC10126150
± gives the standard deviation of the averaged measurements.

tested on: ATP; assay: switch fluorescence ratio, 500 uM ATP over buffer (Cy3 cluster intensity, sum of 5 cycles each) (fold (ratio)); higher = stronger signal-on switching upon ATP binding; sequences stand for … in TCGTCGGCAGCGTCAGATGTGTATAAGAGACAGTTTTTTTTTTTTTTTTTTTTTTTTT…TC; details: aptamer strand: ATP DNA aptamer (quencher-CACCTGGGGGAGTATTGCGGAGGAAGG + anchor), 100 nM annealed; ATP concentration: 500 uM
Method in brief: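 The quencher-labelled ATP aptamer, at 100 nM, was annealed to Cy3-labelled switching-strand clusters on a modified Illumina MiSeq flow-cell. The clusters were imaged in selection buffer, then after 15 min with 500 uM ATP at 22 °C, and this buffer/ATP cycle ran five times with NaOH stripping and re-annealing between runs. Per-cluster fluorescence ratios, summed target-cycle over summed buffer-cycle Cy3 intensity, were averaged per switch-domain sequence. Clusters outside 100-1000 RFU were excluded.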
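Further: ATP exposure 15 min at 22 °C before imaging.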

Row | Sequence | switch fluorescence ratio
1 | AGACGAAAGT | 0.998 ± 0.054
2 | AGACGGCAAA | 1.03 ± 0.044
3 | AGACGGCGGG | 0.996 ± 0.012
4 | AGACGGGATG | 0.973 ± 0.084
5 | AGACTAGTCG | 0.972 ± 0.047
6 | AGACTCTTGA | 1 ± 0.0083
7 | AGACTTTCTT | 1.04 ± 0.02
8 | AGAGAAAAAG | 0.957 ± 0.042
9 | AGAGAGAAAG | 0.97 ± 0.025
10 | AGAGAGATCC | 1.02 ± 0.058
11 | AGAGATGGTT | 0.979 ± 0.012
12 | AGAGATTACG | 1.02 ± 0.034
13 | AGAGATTGGG | 0.965 ± 0.017
14 | AGAGCACAGG | 1.09 ± 0.018
15 | AGAGCAGCTG | 0.998 ± 0.041
16 | AGAGCAGTGT | 1.01 ± 0.014
17 | AGAGCGGGGG | 1.02 ± 0.038
18 | AGAGGAATTC | 1 ± 0.013
19 | AGAGGAATTT | 1.01 ± 0.02
20 | AGAGGAGAAT | 0.993 ± 0.0021
21 | AGAGGAGGCA | 0.9727 ± 0.0085
22 | AGAGGATATA | 0.988 ± 0.043
23 | AGAGGCCTTG | 0.969 ± 0.013
24 | AGAGGCTTAA | 1.01 ± 0.011
25 | AGAGGGCAGG | 0.995 ± 0.018

Row | Sequence | switch fluorescence ratio
26 | AGAGGGCCAT | 0.9972 ± 0.0021
27 | AGAGGGCGGT | 1.02 ± 0.024
28 | AGAGGGCGTC | 1.04 ± 0.046
29 | AGAGGGGAAT | 1.01 ± 0.023
30 | AGAGGGGCGG | 1 ± 0.016
31 | AGAGGGGTAC | 0.992 ± 0.047
32 | AGAGGGGTCA | 1.01 ± 0.02
33 | AGAGGGTAGT | 1.01 ± 0.022
34 | AGAGGGTTAT | 0.985 ± 0.038
35 | AGAGGTGGAG | 0.993 ± 0.03
36 | AGAGGTTTTG | 1.01 ± 0.042
37 | AGAGTAGTTA | 0.9737 ± 0.0036
38 | AGAGTATCTA | 0.962 ± 0.048
39 | AGAGTCGCGG | 1 ± 0.015
40 | AGAGTGACGT | 0.9848 ± 0.0018
41 | AGAGTGGAAG | 0.977 ± 0.051
42 | AGAGTGGGCC | 0.956 ± 0.07
43 | AGAGTGGTGT | 1 ± 0.024
44 | AGAGTTAAAA | 1.04 ± 0.0077
45 | AGAGTTCATA | 1.04 ± 0.027
46 | AGAGTTCTCG | 0.978 ± 0.012
47 | AGAGTTGGTC | 1 ± 0.068
48 | AGATAACAGG | 1.01 ± 0.034
49 | AGATAACTCA | 1.02 ± 0.048
50 | AGATAACTCT | 1.012 ± 0.0083

Row | Sequence | switch fluorescence ratio
51 | AGATAGGAGT | 1.02 ± 0.019
52 | AGATAGTCTC | 0.991 ± 0.024
53 | AGATATAGGG | 0.937 ± 0.012
54 | AGATATCTA | 0.985 ± 0.023
55 | AGATATGCGT | 1.025 ± 0.0013
56 | AGATATTGGC | 1.03 ± 0.11
57 | AGATCGTTGT | 0.978 ± 0.028
58 | AGATCTTCGG | 1.001 ± 0.0076
59 | AGATGAATGT | 0.987 ± 0.015
60 | AGATGAGGAA | 1.004 ± 0.01
61 | AGATGAGGGA | 1.02 ± 0.032
62 | AGATGATTGG | 0.985 ± 0.023
63 | AGATGCAGCT | 0.976 ± 0.033
64 | AGATGCCAGG | 1.1 ± 0.031
65 | AGATGCTTAT | 0.979 ± 0.019
66 | AGATGGATTT | 0.963 ± 0.0091
67 | AGATGGCGCT | 0.967 ± 0.029
68 | AGATGGGCAG | 0.996 ± 0.012
69 | AGATGGGTAC | 1.03 ± 0.029
70 | AGATGGTCAA | 0.967 ± 0.02
71 | AGATGTATAG | 1.034 ± 0.009
72 | AGATGTCCTT | 1.02 ± 0.037
73 | AGATGTCTGG | 0.9897 ± 0.0063
74 | AGATGTGGTT | 0.9922 ± 0.0041
75 | AGATGTTGAA | 0.979 ± 0.023

Row | Sequence | switch fluorescence ratio
76 | AGATGTTTGT | 1.01 ± 0.038
77 | AGATTAAGTA | 0.989 ± 0.024
78 | AGATTAATTG | 0.994 ± 0.008
79 | AGATTAATTT | 0.986 ± 0.021
80 | AGATTACTGC | 1.01 ± 0.023
81 | AGATTAGGCA | 0.992 ± 0.013
82 | AGATTCTGGG | 0.971 ± 0.016
83 | AGATTCTGTA | 0.97 ± 0.011
84 | AGATTGAGCG | 1 ± 0.019
85 | AGATTGATCG | 1.02 ± 0.015
86 | AGATTGATGC | 1.03 ± 0.03
87 | AGATTGCATG | 1.029 ± 0.0077
88 | AGATTGCCGG | 0.97 ± 0.034
89 | AGATTGGACG | 1.02 ± 0.024
90 | AGATTGGGGA | 1.01 ± 0.013
91 | AGATTGGGTA | 1.01 ± 0.024
92 | AGATTGGGTT | 0.967 ± 0.024
93 | AGATTGTGCT | 0.975 ± 0.046
94 | AGATTTACTT | 0.985 ± 0.014
95 | AGATTTAGTC | 1 ± 0.051
96 | AGATTTGCTA | 1.004 ± 0.0078
97 | AGATTTTTAT | 0.983 ± 0.012
98 | AGCAAATGGT | 1.07 ± 0.051
99 | AGCAACATAA | 1.13 ± 0.022
100 | AGCAACATTA | 1.06 ± 0.025

Row | Sequence | switch fluorescence ratio
101 | AGCAACCCCG | 1.22 ± 0.17
102 | AGCAAGGCGT | 1.03 ± 0.043
103 | AGCAAGGGGG | 1.09 ± 0.11
104 | AGCAATGTCT | 1.26 ± 0.065
105 | AGCAATTTTT | 1.1 ± 0.034
106 | AGCACGGGTA | 1.008 ± 0.0055
107 | AGCACTGCTG | 1.01 ± 0.014
108 | AGCAGAAGGA | 1.02 ± 0.015
109 | AGCAGCTAAG | 0.995 ± 0.01
110 | AGCAGCTGGG | 1.01 ± 0.012
111 | AGCAGGGGCT | 1.025 ± 0.0069
112 | AGCAGGGGGG | 1.06 ± 0.067
113 | AGCAGGGGTA | 1.17 ± 0.26
114 | AGCAGTTCGG | 1 ± 0.036
115 | AGCATACCTT | 1.11 ± 0.17
116 | AGCATAGCAT | 1.01 ± 0.019
117 | AGCATGGTAT | 1 ± 0.04
118 | AGCCAGTTTT | 0.9892 ± 0.0073
119 | AGCCATTTTG | 1.02 ± 0.022
120 | AGCCCGCGCA | 1.03 ± 0.028
121 | AGCCGAGTTC | 1.01 ± 0.049
122 | AGCCGGATCA | 0.9931 ± 0.0056
123 | AGCCGGGTAG | 1.053 ± 0.0086
124 | AGCCTTATCC | 1.09 ± 0.02
125 | AGCCTTTTTG | 0.992 ± 0.042

Row | Sequence | switch fluorescence ratio
126 | AGCGAAATCA | 1 ± 0.078
127 | AGCGAAGATG | 1 ± 0.033
128 | AGCGAAGCTG | 1.01 ± 0.011
129 | AGCGACCGTT | 1.032 ± 0.0078
130 | AGCGACGTTT | 0.9647 ± 0.0064
131 | AGCGAGTGTG | 1 ± 0.026
132 | AGCGATAGTC | 1.56 ± 0.024
133 | AGCGATAGTT | 1.1 ± 0.038
134 | AGCGATCGGT | 1.03 ± 0.014
135 | AGCGATGCTT | 1.133 ± 0.011
136 | AGCGATTTAT | 1.03 ± 0.0079
137 | AGCGCGAATG | 1.01 ± 0.018
138 | AGCGCTGCCT | 0.996 ± 0.031
139 | AGCGCTTGTG | 1.02 ± 0.038
140 | AGCGGGGGTT | 0.9996 ± 0.0055
141 | AGCGGGTCCG | 0.987 ± 0.017
142 | AGCGGTCAGT | 0.9776 ± 0.0075
143 | AGCGGTCTGG | 1 ± 0.013
144 | AGCGTAGTCA | 0.9868 ± 0.0021
145 | AGCGTATGTG | 1.02 ± 0.062
146 | AGCGTTAGTG | 1.06 ± 0.013
147 | AGCGTTCTGG | 1.04 ± 0.041
148 | AGCGTTGTG | 1.01 ± 0.044
149 | AGCGTTTTCA | 0.994 ± 0.04
150 | AGCTAAAACG | 1.14 ± 0.19

Row | Sequence | switch fluorescence ratio
151 | AGCTACACGT | 1.05 ± 0.014
152 | AGCTACTTTT | 1.022 ± 0.0035
153 | AGCTCTAAGA | 1.02 ± 0.021
154 | AGCTCTGCGA | 1.09 ± 0.039
155 | AGCTGATACG | 1.31 ± 0.0078
156 | AGCTGCATG | 0.997 ± 0.024
157 | AGCTGGGGTA | 0.951 ± 0.029
158 | AGCTGGTCGT | 0.97265 ± 0.00075
159 | AGCTGTACTA | 1.21 ± 0.029
160 | AGCTGTAGTA | 1.01 ± 0.011
161 | AGCTGTTTGG | 1 ± 0.015
162 | AGCTTAAGGA | 1.03 ± 0.035
163 | AGCTTAGGTC | 1.03 ± 0.029
164 | AGCTTCGTGG | 0.971 ± 0.019
165 | AGCTTCTTAT | 1.03 ± 0.028
166 | AGCTTGCTAT | 0.97 ± 0.011
167 | AGCTTGGGCG | 0.995 ± 0.11
168 | AGCTTGTGTG | 1.01 ± 0.061
169 | AGCTTTACGG | 1.04 ± 0.019
170 | AGCTTTAGGG | 0.9905 ± 0.0022
171 | AGCTTTATGC | 0.935 ± 0.043
172 | AGCTTTATTT | 1.06 ± 0.12
173 | AGCTTTGTC | 0.989 ± 0.043
174 | AGCTTTGTTT | 1.01 ± 0.013
175 | AGCTTTTGAA | 1.006 ± 0.0026

Row | Sequence | switch fluorescence ratio
176 | AGCTTTTTGC | 1.02 ± 0.038
177 | AGGAAACTTA | 0.988 ± 0.0076
178 | AGGAAAGAAT | 0.968 ± 0.056
179 | AGGAAAGATT | 1.01 ± 0.028
180 | AGGAAATAGG | 0.963 ± 0.049
181 | AGGAAATATT | 1.01 ± 0.012
182 | AGGAAGGCGG | 1.02 ± 0.035
183 | AGGAAGGGGT | 0.979 ± 0.033
184 | AGGAAGGGTG | 1.04 ± 0.022
185 | AGGAAGGGTT | 1.05 ± 0.12
186 | AGGAAGGTGT | 1.13 ± 0.2
187 | AGGAAGTTGG | 0.97916 ± 0.00082
188 | AGGAATCGTT | 0.9969 ± 0.0072
189 | AGGAATGACT | 1 ± 0.023
190 | AGGAATTCGG | 0.999 ± 0.017
191 | AGGAATTGCT | 1.03 ± 0.018
192 | AGGAATTTGG | 0.978 ± 0.024
193 | AGGACAAAGG | 0.989 ± 0.041
194 | AGGACAGCGC | 1.024 ± 0.008
195 | AGGACAGGGT | 0.972 ± 0.011
196 | AGGACGGAAT | 1.091 ± 0.0016
197 | AGGACGGGCA | 1.05 ± 0.053
198 | AGGACTAAAG | 0.982 ± 0.013
199 | AGGAGAATGT | 1.02 ± 0.011
200 | AGGAGAGGAT | 1.14 ± 0.28
